B1: CHUP1_611-1004 (CHUP1-C), C-terminal fragment of CHLOROPLAST UNUSUAL POSITIONING 1 (domain or fragment)
chain: ITATGDQSNESNESNEGKASENAATVTKMKLVDIEKRPPRVPRPPPRSAGGGKSTNLPSARPPLPGGGPPPPPPPPGGGPPPPPGGGPPPPPPPPGALGRGAGGGNKVHRAPELVEFYQSLMKRESKKEGAPSLISSGTGNSSAARNNMIGEIENRSTFLLAVKADVETQGDFVQSLATEVRASSFTDIEDLLAFVSWLDEELSFLVDERAVLKHFDWPEGKADALREAAFEYQDLMKLEKQVTSFVDDPNLSCEPALKKMYKLLEKVEQSVYALLRTRDMAISRYKEFGIPVDWLSDTGVVGKIKLSSVQLAKKYMKRVAYELDSVSGSDKDPNREFLLLQGVRFAFRVHQFAGGFDAESMKAFEELRSRAKTESGDNNNNNNNNSNEEESVN
B2: CHUP1_716-982, C-terminal fragment of CHUP1 (domain or fragment)
chain: NKVHRAPELVEFYQSLMKRESKKEGAPSLISSGTGNSSAARNNMIGEIENRSTFLLAVKADVETQGDFVQSLATEVRASSFTDIEDLLAFVSWLDEELSFLVDERAVLKHFDWPEGKADALREAAFEYQDLMKLEKQVTSFVDDPNLSCEPALKKMYKLLEKVEQSVYALLRTRDMAISRYKEFGIPVDWLSDTGVVGKIKLSSVQLAKKYMKRVAYELDSVSGSDKDPNREFLLLQGVRFAFRVHQFAGGFDAESMKAFEELRSRA

Columns and labels:
SEC = molecular target: the molecule itself; assay: SEC
crystal structure = molecular target: the molecule itself; assay: crystal structure

Protein	stoichiometry N (SEC)	binding result (crystal structure)
B1	2	
B2		binds

Reference: paper doi:10.1101/2020.01.14.905984 (bioRxiv, 2020)
